Test results from the supplement of paper PMC9112550, “Optimization of the antimicrobial peptide Bac7 by deep mutational scanning” (BMC Biology, 2022).
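Further: peptides expressed intracellularly from a pBAD plasmid library in pooled LB shake-flask culture, induced with 0.3% L-arabinose, DNA abundance read by NGS, three biological replicates, DESeq2 with apeglm shrinkage.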

What follows are sequences tested on Escherichia coli TOP10 (assay: shrunken log2 fold change of peptide-encoding DNA abundance (4.5 h post-induction vs induction); higher = less antimicrobial activity (less host growth inhibition)). Conditions: time post-induction: 4.5 h; library: site-saturation at positions 5, 18, 19, 20.
With RRIRTRPPRLPRPRPRPMMMPRP the “shrunken log2 fold change” value was 2.94.
With RRIRTRPPRLPRPRPRPMNRPRP the “shrunken log2 fold change” value was -0.0804.
With RRIRTRPPRLPRPRPRPMNTPRP the “shrunken log2 fold change” value was -0.609.
RRIRTRPPRLPRPRPRPMREPRP was tested, and the “shrunken log2 fold change” value was 0.864.
For RRIRTRPPRLPRPRPRPMSPPRP, the “shrunken log2 fold change” value was -0.152.
For RRIRTRPPRLPRPRPRPMTLPRP, the “shrunken log2 fold change” value was -0.028.
For RRIRTRPPRLPRPRPRPMTPPRP, the “shrunken log2 fold change” value was 0.126.
RRIRTRPPRLPRPRPRPMVTPRP was tested, and the “shrunken log2 fold change” value was 0.06.
With RRIRTRPPRLPRPRPRPNAHPRP the “shrunken log2 fold change” value was -0.102.
In the case of RRIRTRPPRLPRPRPRPNAIPRP, the “shrunken log2 fold change” value is reported as -0.797.
RRIRTRPPRLPRPRPRPNAQPRP was tested, and the “shrunken log2 fold change” value was 0.5.
With RRIRTRPPRLPRPRPRPNASPRP the “shrunken log2 fold change” value was -0.0378.
RRIRTRPPRLPRPRPRPNCDPRP was tested, and the “shrunken log2 fold change” value was 1.31.
In the case of RRIRTRPPRLPRPRPRPNCEPRP, the “shrunken log2 fold change” value is reported as 0.111.
RRIRTRPPRLPRPRPRPNEIPRP was tested, and the “shrunken log2 fold change” value was -0.128.
With RRIRTRPPRLPRPRPRPNGNPRP the “shrunken log2 fold change” value was -0.302.
With RRIRTRPPRLPRPRPRPNHIPRP the “shrunken log2 fold change” value was -0.825.
In the case of RRIRTRPPRLPRPRPRPNHRPRP, the “shrunken log2 fold change” value is reported as -0.209.
For RRIRTRPPRLPRPRPRPNITPRP, the “shrunken log2 fold change” value was -0.664.
RRIRTRPPRLPRPRPRPNKVPRP was tested, and the “shrunken log2 fold change” value was -0.326.
RRIRTRPPRLPRPRPRPNLDPRP was tested, and the “shrunken log2 fold change” value was 0.0338.
In the case of RRIRTRPPRLPRPRPRPNLKPRP, the “shrunken log2 fold change” value is reported as -0.374.
For RRIRTRPPRLPRPRPRPNLRPRP, the “shrunken log2 fold change” value was -0.184.
For RRIRTRPPRLPRPRPRPNMNPRP, the “shrunken log2 fold change” value was -0.864.
RRIRTRPPRLPRPRPRPNNCPRP was tested, and the “shrunken log2 fold change” value was -0.0675.
RRIRTRPPRLPRPRPRPNNMPRP was tested, and the “shrunken log2 fold change” value was -0.346.
In the case of RRIRTRPPRLPRPRPRPNNRPRP, the “shrunken log2 fold change” value is reported as -0.754.
RRIRTRPPRLPRPRPRPNPAPRP was tested, and the “shrunken log2 fold change” value was 0.147.
With RRIRTRPPRLPRPRPRPNPQPRP the “shrunken log2 fold change” value was 0.125.
In the case of RRIRTRPPRLPRPRPRPNPSPRP, the “shrunken log2 fold change” value is reported as -0.128.
For RRIRTRPPRLPRPRPRPNWIPRP, the “shrunken log2 fold change” value was -0.289.
In the case of RRIRTRPPRLPRPRPRPNWYPRP, the “shrunken log2 fold change” value is reported as -0.382.
In the case of RRIRTRPPRLPRPRPRPNYCPRP, the “shrunken log2 fold change” value is reported as -0.0491.
For RRIRTRPPRLPRPRPRPNYQPRP, the “shrunken log2 fold change” value was -0.362.
With RRIRTRPPRLPRPRPRPNYTPRP the “shrunken log2 fold change” value was -0.753.
With RRIRTRPPRLPRPRPRPNYVPRP the “shrunken log2 fold change” value was -0.35.
RRIRTRPPRLPRPRPRPPAHPRP was tested, and the “shrunken log2 fold change” value was 0.252.
For RRIRTRPPRLPRPRPRPPDNPRP, the “shrunken log2 fold change” value was -0.0234.
RRIRTRPPRLPRPRPRPPGAPRP was tested, and the “shrunken log2 fold change” value was 0.995.
With RRIRTRPPRLPRPRPRPPGRPRP the “shrunken log2 fold change” value was 0.586.
In the case of RRIRTRPPRLPRPRPRPPHRPRP, the “shrunken log2 fold change” value is reported as -0.0645.
In the case of RRIRTRPPRLPRPRPRPPIPPRP, the “shrunken log2 fold change” value is reported as 0.128.
In the case of RRIRTRPPRLPRPRPRPPKHPRP, the “shrunken log2 fold change” value is reported as 0.157.
RRIRTRPPRLPRPRPRPPKMPRP was tested, and the “shrunken log2 fold change” value was 0.18.
For RRIRTRPPRLPRPRPRPPNEPRP, the “shrunken log2 fold change” value was 0.207.
RRIRTRPPRLPRPRPRPPNTPRP was tested, and the “shrunken log2 fold change” value was 0.443.
With RRIRTRPPRLPRPRPRPPPGPRP the “shrunken log2 fold change” value was 0.668.
In the case of RRIRTRPPRLPRPRPRPPPLPRP, the “shrunken log2 fold change” value is reported as 0.352.
For RRIRTRPPRLPRPRPRPPQDPRP, the “shrunken log2 fold change” value was 0.608.
With RRIRTRPPRLPRPRPRPPQIPRP the “shrunken log2 fold change” value was 0.16.
RRIRTRPPRLPRPRPRPPQKPRP was tested, and the “shrunken log2 fold change” value was 0.0412.
For RRIRTRPPRLPRPRPRPPQPPRP, the “shrunken log2 fold change” value was 0.154.
RRIRTRPPRLPRPRPRPPRGPRP was tested, and the “shrunken log2 fold change” value was 0.607.
RRIRTRPPRLPRPRPRPPRPPRP was tested, and the “shrunken log2 fold change” value was 0.713.
For RRIRTRPPRLPRPRPRPPTDPRP, the “shrunken log2 fold change” value was 0.0638.
In the case of RRIRTRPPRLPRPRPRPPTIPRP, the “shrunken log2 fold change” value is reported as -0.248.
For RRIRTRPPRLPRPRPRPPVFPRP, the “shrunken log2 fold change” value was 0.346.
In the case of RRIRTRPPRLPRPRPRPPVVPRP, the “shrunken log2 fold change” value is reported as -0.0715.
RRIRTRPPRLPRPRPRPPYQPRP was tested, and the “shrunken log2 fold change” value was 0.0802.
For RRIRTRPPRLPRPRPRPPYVPRP, the “shrunken log2 fold change” value was -0.212.
With RRIRTRPPRLPRPRPRPQCNPRP the “shrunken log2 fold change” value was -0.0399.
For RRIRTRPPRLPRPRPRPQCRPRP, the “shrunken log2 fold change” value was -0.259.
For RRIRTRPPRLPRPRPRPQDLPRP, the “shrunken log2 fold change” value was -0.0848.
RRIRTRPPRLPRPRPRPQELPRP was tested, and the “shrunken log2 fold change” value was 0.0724.
For RRIRTRPPRLPRPRPRPQFRPRP, the “shrunken log2 fold change” value was -0.132.
In the case of RRIRTRPPRLPRPRPRPQHFPRP, the “shrunken log2 fold change” value is reported as -0.0212.
With RRIRTRPPRLPRPRPRPQHWPRP the “shrunken log2 fold change” value was 0.08.
RRIRTRPPRLPRPRPRPQIEPRP was tested, and the “shrunken log2 fold change” value was -0.107.
For RRIRTRPPRLPRPRPRPQIPPRP, the “shrunken log2 fold change” value was -0.235.
For RRIRTRPPRLPRPRPRPQKHPRP, the “shrunken log2 fold change” value was -0.459.
With RRIRTRPPRLPRPRPRPQKIPRP the “shrunken log2 fold change” value was -0.123.
In the case of RRIRTRPPRLPRPRPRPQNRPRP, the “shrunken log2 fold change” value is reported as -0.199.
RRIRTRPPRLPRPRPRPQPEPRP was tested, and the “shrunken log2 fold change” value was 0.0514.
RRIRTRPPRLPRPRPRPQPPPRP was tested, and the “shrunken log2 fold change” value was 0.357.
In the case of RRIRTRPPRLPRPRPRPQREPRP, the “shrunken log2 fold change” value is reported as -0.0725.
In the case of RRIRTRPPRLPRPRPRPQTDPRP, the “shrunken log2 fold change” value is reported as -0.466.
For RRIRTRPPRLPRPRPRPQVQPRP, the “shrunken log2 fold change” value was -0.0311.
For RRIRTRPPRLPRPRPRPQVYPRP, the “shrunken log2 fold change” value was -0.168.
With RRIRTRPPRLPRPRPRPQYCPRP the “shrunken log2 fold change” value was -0.0968.
For RRIRTRPPRLPRPRPRPQYKPRP, the “shrunken log2 fold change” value was -1.04.
RRIRTRPPRLPRPRPRPQYRPRP was tested, and the “shrunken log2 fold change” value was -0.0697.
RRIRTRPPRLPRPRPRPRACPRP was tested, and the “shrunken log2 fold change” value was 0.608.
RRIRTRPPRLPRPRPRPRAPPRP was tested, and the “shrunken log2 fold change” value was 0.511.
RRIRTRPPRLPRPRPRPRAYPRP was tested, and the “shrunken log2 fold change” value was -0.339.
RRIRTRPPRLPRPRPRPRCDPRP was tested, and the “shrunken log2 fold change” value was 0.13.
For RRIRTRPPRLPRPRPRPRCLPRP, the “shrunken log2 fold change” value was -0.0645.
In the case of RRIRTRPPRLPRPRPRPREGPRP, the “shrunken log2 fold change” value is reported as 0.41.
For RRIRTRPPRLPRPRPRPREHPRP, the “shrunken log2 fold change” value was 0.327.
With RRIRTRPPRLPRPRPRPRFMPRP the “shrunken log2 fold change” value was -0.265.
In the case of RRIRTRPPRLPRPRPRPRHDPRP, the “shrunken log2 fold change” value is reported as 0.0144.
In the case of RRIRTRPPRLPRPRPRPRHPPRP, the “shrunken log2 fold change” value is reported as 0.225.
With RRIRTRPPRLPRPRPRPRIKPRP the “shrunken log2 fold change” value was -0.208.
In the case of RRIRTRPPRLPRPRPRPRITPRP, the “shrunken log2 fold change” value is reported as -0.474.
For RRIRTRPPRLPRPRPRPRKMPRP, the “shrunken log2 fold change” value was -0.107.
For RRIRTRPPRLPRPRPRPRKVPRP, the “shrunken log2 fold change” value was -0.295.
For RRIRTRPPRLPRPRPRPRLRPRP, the “shrunken log2 fold change” value was 0.403.
For RRIRTRPPRLPRPRPRPRPDPRP, the “shrunken log2 fold change” value was 1.44.
RRIRTRPPRLPRPRPRPRPGPRP was tested, and the “shrunken log2 fold change” value was 0.621.
With RRIRTRPPRLPRPRPRPRQDPRP the “shrunken log2 fold change” value was -0.144.
RRIRTRPPRLPRPRPRPRQKPRP was tested, and the “shrunken log2 fold change” value was 0.0911.
For RRIRTRPPRLPRPRPRPRRIPRP, the “shrunken log2 fold change” value was -0.16.
In the case of RRIRTRPPRLPRPRPRPRRRPRP, the “shrunken log2 fold change” value is reported as 0.411.
With RRIRTRPPRLPRPRPRPRTTPRP the “shrunken log2 fold change” value was 0.419.
RRIRTRPPRLPRPRPRPRTWPRP was tested, and the “shrunken log2 fold change” value was -0.0887.
With RRIRTRPPRLPRPRPRPRVWPRP the “shrunken log2 fold change” value was 0.382.
RRIRTRPPRLPRPRPRPRWTPRP was tested, and the “shrunken log2 fold change” value was -0.0339.
RRIRTRPPRLPRPRPRPRWWPRP was tested, and the “shrunken log2 fold change” value was 0.533.
In the case of RRIRTRPPRLPRPRPRPSAGPRP, the “shrunken log2 fold change” value is reported as -0.0241.
RRIRTRPPRLPRPRPRPSAMPRP was tested, and the “shrunken log2 fold change” value was -0.0978.
